In ChEMBL document CHEMBL2073772, “Primary active transport of organic anions on bile canalicular membrane in humans” (Am J Physiol, 1999):

What was measured:
[1] = target: ATP-binding cassette sub-family C member 2 (Homo sapiens, UniProt Q92887); experiment: (§1) TP_TRANSPORTER: uptake in bile canalicular membrane vesicles; type: functional, cell membranes, Bile canalicular membrane vesicle
[2] = substrate: CNc1nc2c(Cc3cccnc3)c(C)c(O[C@@H]3O[C@H](C(=O)O)[C@@H](O)[C@H](O)[C@H]3O)c(C)c2s1; experiment: as §1; type: functional, cell membranes, Homo sapiens, Bile canalicular membrane vesicle
[3] = substrate: N[C@@H](CCC(=O)N[C@H](CSc1ccc([N+](=O)[O-])cc1[N+](=O)[O-])C(=O)NCC(=O)O)C(=O)O; experiment: as §1; type: functional, cell membranes, Homo sapiens, Bile canalicular membrane vesicle

Molecule: Cc1c(F)c(N2CCNC(C)C2)cc2c1c(=O)c(C(=O)O[C@@H]1O[C@H](C(=O)O)[C@@H](O)[C@H](O)[C@H]1O)cn2C1CC1 (stereo partly drawn) [GREPAFLOXACIN GLUCURONIDE]
- Activity [1]: substrate [+]

B1: ATP-binding cassette sub-family C member 2 (Homo sapiens) (protein)
chain: MLEKFCNSTFWNSSFLDSPEADLPLCFEQTVLVWIPLGYLWLLAPWQLLHVYKSRTKRSSTTKLYLAKQVFVGFLLILAAIELALVLTEDSGQATVPAVRYTNPSLYLGTWLLVLLIQYSRQWCVQKNSWFLSLFWILSILCGTFQFQTLIRTLLQGDNSNLAYSCLFFISYGFQILILIFSAFSENNESSNNPSSIASFLSSITYSWYDSIILKGYKRPLTLEDVWEVDEEMKTKTLVSKFETHMKRELQKARRALQRRQEKSSQQNSGARLPGLNKNQSQSQDALVLEDVEKKKKKSGTKKDVPKSWLMKALFKTFYMVLLKSFLLKLVNDIFTFVSPQLLKLLISFASDRDTYLWIGYLCAILLFTAALIQSFCLQCYFQLCFKLGVKVRTAIMASVYKKALTLSNLARKEYTVGETVNLMSVDAQKLMDVTNFMHMLWSSVLQIVLSIFFLWRELGPSVLAGVGVMVLVIPINAILSTKSKTIQVKNMKNKDKRLKIMNEILSGIKILKYFAWEPSFRDQVQNLRKKELKNLLAFSQLQCVVIFVFQLTPVLVSVVTFSVYVLVDSNNILDAQKAFTSITLFNILRFPLSMLPMMISSMLQASVSTERLEKYLGGDDLDTSAIRHDCNFDKAMQFSEASFTWEHDSEATVRDVNLDIMAGQLVAVIGPVGSGKSSLISAMLGEMENVHGHITIKGTTAYVPQQSWIQNGTIKDNILFGTEFNEKRYQQVLEACALLPDLEMLPGGDLAEIGEKGINLSGGQKQRISLARATYQNLDIYLLDDPLSAVDAHVGKHIFNKVLGPNGLLKGKTRLLVTHSMHFLPQVDEIVVLGNGTIVEKGSYSALLAKKGEFAKNLKTFLRHTGPEEEATVHDGSEEEDDDYGLISSVEEIPEDAASITMRRENSFRRTLSRSSRSNGRHLKSLRNSLKTRNVNSLKEDEELVKGQKLIKKEFIETGKVKFSIYLEYLQAIGLFSIFFIILAFVMNSVAFIGSNLWLSAWTSDSKIFNSTDYPASQRDMRVGVYGALGLAQGIFVFIAHFWSAFGFVHASNILHKQLLNNILRAPMRFFDTTPTGRIVNRFAGDISTVDDTLPQSLRSWITCFLGIISTLVMICMATPVFTIIVIPLGIIYVSVQMFYVSTSRQLRRLDSVTRSPIYSHFSETVSGLPVIRAFEHQQRFLKHNEVRIDTNQKCVFSWITSNRWLAIRLELVGNLTVFFSALMMVIYRDTLSGDTVGFVLSNALNITQTLNWLVRMTSEIETNIVAVERITEYTKVENEAPWVTDKRPPPDWPSKGKIQFNNYQVRYRPELDLVLRGITCDIGSMEKIGVVGRTGAGKSSLTNCLFRILEAAGGQIIIDGVDIASIGLHDLREKLTIIPQDPILFSGSLRMNLDPFNNYSDEEIWKALELAHLKSFVASLQLGLSHEVTEAGGNLSIGQRQLLCLGRALLRKSKILVLDEATAAVDLETDNLIQTTIQNEFAHCTVITIAHRLHTIMDSDKVMVLDNGKIIECGSPEELLQIPGPFYFMAKEAGIENVNSTKF
- Km [2]: 14.1 µM
- Km [3]: 193 µM
